Measured values published in patent US20060149033A1, “IGF antagonist peptides” (GENENTECH, INC., priority 2001, published 2006).
Bridge positions count the residues as written; N and C are the ends. Peptide text beside a SMILES is read from it.

Legend:
[1] = tested on: human type 1 IGF-1 receptor; assay: Cell-based IGF-1 KIRA assay; conditions: MCF-7 cells; peptides preincubated 30 min with 2 nm IGF-1; 15-minute stimulation
Procedure: Cell-Based IGF-1 KIRA Assay
A KIRA for measuring the activation of the human type 1 IGF-1 receptor was performed using human MCF-7 cells (as described above). Cells were grown overnight in 96-well plates with medium (50:50 F12/DMEM, Gibco). Supernatants were decanted, and stimulation media (50:50 F12/DMEM with 25 mM HEPES and 2.0% BSA) containing either controls (2 nM IGF-1 preincubated with IGF Bp1 or Bp3) or experimental samples (Peptides preincubated for 30 min. with 2 nm IGF-1) were added. After 15-minute stimulation the cells were lysed, and added to the polyclonal anti-IGF-R (3B7 Santa Cruz Biotech) coated overnight on immunosorbant plates. The detection ELISA was performed as above.

[2] = tested on: human insulin receptor (hIR); assay: Cell-based insulin KIRA assay (kinase receptor activation); conditions: Chinese hamster ovary cells transfected with hIR; peptides incubated with 25 nm IGF-1 for 1 hr; 15 min stimulation
Procedure: Cell-Based Insulin KIRA Assay of IGF-1 Binding Peptide Activity
A kinase receptor activation assay (KIRA) (Sadick et al., J. Pharm. Biomed. Anal., 19, 883-891 (1999)) for measuring phosphorylation of human insulin receptor (hIR) was developed using Chinese hamster ovary cells transfected with the hIR. (TRY-1R 5.3) Cells were grown overnight in 96-well plates with medium (PS/20) at 37° C. Supernatants were decanted and stimulation media (PS/20 and 0.5% BSA) containing either peptide samples (peptides incubated with 25 nm IGF-1 for 1 hr), experimental controls (IGF Bp1 incubated with IGF-1 for 1 hr), and 25 nm rhIGF-1 standards were added. After fifteen minute stimulation at 37° C., stimulation solutions were removed and cells were lysed with a buffer containing 50 mM HEPES, 150 mM NaCl, 0.5% Triton-X-100™ octylphenyl ethylene oxide condensate, 1 mM AEBSF, aprotinin and 0.05 mM leupeptin, and 2 mM sodium orthovanadate. Lysates were frozen at −70° C. for ELISA. Immunosorbant plates were coated with 2 μg/ml insulin receptor Ab-2 (clone 83-7) in PBS at pH 7.0 overnight at 4° C. The plate was blocked and washed as above. Cell lysates containing transfected hIR were incubated on the capture ELISA plates for 2 hrs. After removing unbound receptor by washing, biotinylated anti-phosphotyrosine 4G10 (Upstate Biologicals Inc.) was added to detect activated receptor. After 2 hrs, the plates were developed with streptavidin conjugated to HRP and TMB substrate as above.

IGF-1 = molecular target: T1, IGF-1 (Homo sapiens, UniProt P05019); assay: Affinity measurement by monovalent phage ELISA (phage competition IC50); type: binding; conditions: positive second generation clones
T1 construct: made in house
T1 sequence (P05019 49-118 limits assumed): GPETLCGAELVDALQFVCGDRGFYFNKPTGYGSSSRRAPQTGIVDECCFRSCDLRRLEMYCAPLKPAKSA
Procedure: E. coli XL1-Blue harboring phagemids were grown overnight at 37° C. in 2YT, 50 μg/mL carbenicillin, 10 μg/mL tetracycline and M13-VCS helper phage (10^10 phage/mL). Phage were harvested from the culture supernatant by precipitation twice with PEG/NaCl and resuspended in phosphate-buffered saline, 0.2% BSA, 0.1% TWEEN®-20 detergent (BSA blocking buffer). Phage concentrations were determined spectrophotometrically (λ268=1.2×10^8 M^−1 cm^−1).
MAXISORP™ immunoplates (96-well) were coated with capture target protein for 2 hours at room temperature (100 μL at 5 μg/mL in 50 mM carbonate buffer, pH 9.6). The plates were then blocked for 1 h with 0.2% BSA in phosphate-buffered saline (PBS) and washed eight times with PBS, 0.05% TWEEN®-20 detergent. Phage particles were serially diluted into BSA blocking buffer and 100 μL were transferred to coated wells. After 1 h, plates were washed eight times with PBS, 0.05% TWEEN®-20 detergent, incubated with 100 μL of 1:3000 horse radish peroxidase/anti-M13 antibody conjugate in BSA blocking buffer for 30 min, and then washed eight times with PBS, 0.05% TWEEN®-20 detergent and two times with PBS. Plates were developed using a tetramethylbenzidine substrate (TMB, Kirkegaard and Perry, Gaithersburg, Md.), stopped with 1.0 M H3PO4, and read spectrophotometrically at […].
Affinity Measurement by Monovalent Phage ELISA
Phage ELISAs were carried out as described above, using plates coated with IGF-1. Peptide-displaying phage were serially diluted and binding was measured to determine a phage concentration giving <50% of the ELISA signal at saturation.
A fixed, subsaturating concentration of peptide-phage was mixed with serial dilutions of IGF-1 and incubated for 1.0 hr and then transferred to assay plates coated with IGF-1. After 30-min incubation, the plates were washed and developed as described above. The binding affinities of the peptides for IGF-1 were determined as IC50 values where the IC50 value is defined as the concentration of IGF-1 that blocked 50% of the peptide-phage binding to the immobilized IGF-1.

Molecule | IC50 [1] | IC50 [2] | IC50 (IGF-1)
CSCC[C@H](NC(=O)[C@@H]1CSSC[C@H](NC(=O)[C@H](CCC(=O)O)NC(=O)[C@@H](N)CC(=O)O)C(=O)N[C@@H](CC(C)C)C(=O)N[C@@H](CCSC)C(=O)N[C@@H](CO)C(=O)N[C@@H](C(C)C)C(=O)N[C@@H](CCC(=O)O)C(=O)N[C@@H](C)C(=O)N[C@@H](CC(C)C)C(=O)N[C@@H](CCCCN)C(=O)N[C@@H](CC(N)=O)C(=O)N1)C(=O)NCC(=O)NCC(=O)O [Peptide F1-P, DECLMSVEALKNCMGG] (H-DECLMSVEALKNCMGG-OH; disulfide 3-13) | 400 µM | 183 µM | –
CC(C)C[C@@H]1NC(=O)[C@H](CC(=O)O)NC(=O)[C@H](CO)NC(=O)[C@H](C)NC(=O)[C@@H](NC(=O)CNC(=O)[C@@H](N)CC(C)C)CSSC[C@@H](C(=O)N[C@@H](Cc2c[nH]c3ccccc23)C(=O)N[C@@H](C)C(=O)NCC(=O)O)NC(=O)[C@H](Cc2ccc(O)cc2)NC(=O)[C@H](Cc2c[nH]c3ccccc23)NC(=O)[C@H](Cc2ccccc2)NC(=O)CNC(=O)[C@H](C)NC1=O [Peptide F2-1, LGCASDLAGFWYCWAG] (H-LGCASDLAGFWYCWAG-OH; disulfide 3-13 (inferred); N-terminus and C-terminus assumed) | – | 40.4 µM | –
CC(C)C[C@@H]1NC(=O)[C@H](CC(=O)O)NC(=O)[C@H](CC(=O)O)NC(=O)[C@H](C(C)C)NC(=O)[C@@H](NC(=O)[C@H](CCCNC(=N)N)NC(=O)[C@@H](N)Cc2c[nH]c3ccccc23)CSSC[C@@H](C(=O)N[C@@H](Cc2c[nH]c3ccccc23)C(=O)N[C@@H](C)C(=O)NCC(=O)O)NC(=O)[C@H](Cc2ccc(O)cc2)NC(=O)[C@H](CCC(N)=O)NC(=O)[C@H](Cc2ccccc2)NC(=O)CNC(=O)CNC1=O [Peptide F2-2, WRCVDDLGGFQYCWAG] (H-WRCVDDLGGFQYCWAG-OH; disulfide 3-13 (inferred); N-terminus and C-terminus assumed) | 130 µM | 93.6 µM | –
CC(C)[C@@H]1NC(=O)[C@@H](NC(=O)[C@H](CCCNC(=N)N)NC(=O)[C@H](C)N)CSSC[C@@H](C(=O)N[C@@H](Cc2c[nH]c3ccccc23)C(=O)N[C@@H](C)C(=O)NCC(=O)O)NC(=O)[C@H](Cc2ccc(O)cc2)NC(=O)[C@H](Cc2c[nH]c3ccccc23)NC(=O)[C@H]([C@@H](C)O)NC(=O)CNC(=O)CNC(=O)[C@H](C)NC(=O)[C@H](CC(=O)O)NC(=O)[C@H](C(C)C)NC1=O [Peptide F2-P, ARCVVDAGGTWYCWAG] (H-ARCVVDAGGTWYCWAG-OH; disulfide 3-13) | – | 300 µM | –
F1-A (HPCLESVGALKACMY; Sequence is synthesized) [Peptide F1-A] | – | – | 0.401 µM
F1-B (FGCYESVAALRTCMY; Sequence is synthesized) [Peptide F1-B] | – | – | 0.301 µM
F1-C (RNCFESVAALRRCMY; Sequence is synthesized) [Peptide F1-C] | – | – | 0.108 µM
F1-E (SDCFGSVEALKMCMY; Sequence is synthesized) [Peptide F1-E] | – | – | 0.711 µM
F1-F (FECLTSVEALRGCMY; Sequence is synthesized) [Peptide F1-F] | – | – | 0.286 µM
F1-G (SDCFESVEALRACMY; Sequence is synthesized) [Peptide F1-G] | – | – | 0.968 µM
F1-H (MDCLASVEALKWCMY; Sequence is synthesized) [Peptide F1-H] | – | – | 0.147 µM
F2-A (GGCASDLAGFRYCWE; Sequence is synthesized) [Peptide F2-A] | – | – | 1.33 µM
F2-B (VRCAYDAGGSRYCWE; Sequence is synthesized) [Peptide F2-B] | – | – | 24.6 µM
F2-C (VKCARDLSGFVYCWA; Sequence is synthesized) [Peptide F2-C] | – | – | 10000 µM
F2-D (VRCAWDLGGRAYCWA; Sequence is synthesized) [Peptide F2-D] | – | – | 249 µM
F2-E (LGCASDLAGFWYCWA; Sequence is synthesized) [Peptide F2-E] | – | – | 0.554 µM
F2-F (FRCAWELGWLYVLGL; Sequence is synthesized) [Peptide F2-F] | – | – | 209 µM
F2-G (ASCVADAGGGGYCWD; Sequence is synthesized) [Peptide F2-G] | – | – | 0.986 µM
F2-H (WRCVDDLGGFQYCWA; Sequence is synthesized) [Peptide F2-H] | – | – | 0.319 µM
F2-I (VTCAADALGFLYCWE; Sequence is synthesized) [Peptide F2-I] | – | – | 1.03 µM
F2-J (LRCAEDLGGYFYCWA; Sequence is synthesized) [Peptide F2-J] | – | – | 2.12 µM
F2-K (YRCATDLAGFSYCWA; Sequence is synthesized) [Peptide F2-K] | – | – | 1.45 µM
F2-L (ARCARDAGGFYYCWA; Sequence is synthesized) [Peptide F2-L] | – | – | 4.36 µM
F2-M (WRCAQDAGGWTYCWA; Sequence is synthesized) [Peptide F2-M] | – | – | 1.04 µM
F2-N (WRCVTDAGGRPYCWA; Sequence is synthesized) [Peptide F2-N] | – | – | 1.18 µM
